Positions count from the first letter of the chain named.
B1: A37 (antibody, V domains shown)
VH: QVLLVQSGAEVRTPGASVKIFCKASGYSFTSYTIHWLRQAPAQGLEWMGAINPTSGYTENNQRFKDRLTLTADTSTNTAYMELSSLRSADTAMYYCARWGFKYDGEWSFDVWGAGTTVTVSS
VL: EIQMTQSPSSLSASPGDRVTITCRASQGISIWLSWYQQKPGNIPKVLINKASNLHIGVPSRFSGSGSGTDFTLTISSLEPEDAATYYCLQSQTYPLTFGGGTKLEIK
B2: A49 (antibody, V domains shown)
VH: B1 VH with A50N, N61A
VL: B1 VL
B3: A38 (antibody, V domains shown)
VH: B1 VH with A50N, I51A
VL: B1 VL
B4: A45 (antibody, V domains shown)
VH: B1 VH with A50N, Y57A
VL: B1 VL
B5: A43 (antibody, V domains shown)
VH: B1 VH with A50N, S55A
VL: B1 VL
B6: A47 (antibody, V domains shown)
VH: B1 VH with A50N, E59A
VL: B1 VL
B7: A50 (antibody, V domains shown)
VH: B1 VH with A50N, Q62A
VL: B1 VL
B8: A48 (antibody, V domains shown)
VH: B1 VH with A50N, N60A
VL: B1 VL
B9: A39 (antibody, V domains shown)
VH: B1 VH with A50N, N52A
VL: B1 VL
B10: A42 (antibody, V domains shown)
VH: B1 VH with A50N, T54A
VL: B1 VL
B11: A40 (antibody, V domains shown)
VH: B1 VH with A50N, P53A
VL: B1 VL
B12: A44 (antibody, V domains shown)
VH: B1 VH with A50N, G56A
VL: B1 VL
B13: A52 (antibody, V domains shown)
VH: B1 VH with A50N, W99A
VL: B1 VL

Molecular target: T1, wildtype feline IL-31 protein (Feline_IL31_wildtype) (feline)
T1 chain: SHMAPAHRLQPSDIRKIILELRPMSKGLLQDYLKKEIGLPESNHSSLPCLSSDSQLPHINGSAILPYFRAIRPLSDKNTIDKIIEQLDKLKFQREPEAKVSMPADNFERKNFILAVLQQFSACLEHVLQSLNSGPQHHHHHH
Experiment: cell-based or functional assay
With B1 the “% Inhibition Relative to Parent (pSTAT, FCWF-4 cells)” value (from here on “% Inhibition Relative to Parent”) was 52.1%. With B2 the “% Inhibition Relative to Parent” value was 46.6%. B3 was tested, and the “% Inhibition Relative to Parent” value was 42.2%. B4 was tested, and the “% Inhibition Relative to Parent” value was 22.8%. For B5, the “% Inhibition Relative to Parent” value was 47.4%. For B6, the “% Inhibition Relative to Parent” value was 18%. In the case of B7, the “% Inhibition Relative to Parent” value is reported as 55.5%. B8 was tested, and the “% Inhibition Relative to Parent” value was 47.3%. In the case of B9, the “% Inhibition Relative to Parent” value is reported as 25.1%. For B10, the “% Inhibition Relative to Parent” value was 83.6%. For B11, the “% Inhibition Relative to Parent” value was 5.7%. B12 was tested, and the “% Inhibition Relative to Parent” value was 36.9%. With B13 the “% Inhibition Relative to Parent” value was -2.1%.

Molecular target: T1, wildtype feline IL-31 protein …
Experiment: Biacore, feline IL-31 chip, mAb 100 nM, share of points within parent mean +/-3 SD
Set-up: key: % of mutant data points within parent mAb mean ±3 SD
Source text: The mean response unit of four replicates of the parent mAb+/−3 standard deviations was used to generate parameters to define a threshold of response units comprising both the on- and off-rates antibody binding (FIG. 22). The percentage of data points for each mutant fell within this threshold was then used to define a “% similarity score” (FIG. 23).
With B1 the “Binding Similarity score” value was 46.1. In the case of B2, the “Binding Similarity score” value is reported as 37. B3 was tested, and the “Binding Similarity score” value was 55.1. In the case of B4, the “Binding Similarity score” value is reported as 31.9. In the case of B5, the “Binding Similarity score” value is reported as 100. B6 was tested, and the “Binding Similarity score” value was 100. In the case of B7, the “Binding Similarity score” value is reported as 58.6. B8 was tested, and the “Binding Similarity score” value was 70.2. With B9 the “Binding Similarity score” value was 100. With B10 the “Binding Similarity score” value was 44.9. With B11 the “Binding Similarity score” value was 2.7. B12 was tested, and the “Binding Similarity score” value was 55.8. For B13, the “Binding Similarity score” value was 2.4.
